Test system: Zif268::FokI zinc finger nuclease (synthetic)
Assay: cell_activity
Conditions: N. tabacum leaf, pLSLZ.D + p35SREP, 7 dpi; 6 of 8 sequenced resistant clones mutated

Question: Which activity (% of reporter genes with NHEJ mutations) does the source give for “Zif268 target site in gus::nptII reporter” here?
Answer: 10
